Data reported in patent US20230122991A1, “GROWTH FACTOR FORMULATION FOR CONDITION ASSOCIATED WITH OTIC EVENT” (OTONOMY, INC., priority 2020, published 2023).

Tests used:
[1] = test system: adult male rats bilaterally exposed to noise; assay: Noise-induced cochlear synaptopathy, ABR thresholds and wave I amplitude (Example G); assay type: in vivo, rat
Protocol: (§1) Animals: Male Sprague-Dawley rats (5-6 months of age) were used for efficacy studies and females (2-3 months) were used for pharmacokinetic studies.
(§2) Formulations: Human recombinant BDNF was suspended in the thermoreversible polymer Poloxamer 407 (16%) to reach a range of BDNF concentrations.
(§3) Intratympanic (IT) injection: Formulations were administered under anesthesia as a single IT injection (20 μl) through the tympanic membrane into the middle ear, targeting the round window membrane (RWM).
(§4) Noise-induced cochlear synaptopathy: Rats (n=44 per treatment group) received a single acoustic trauma (105 dB SPL, 8-16 kHz, 1 h) under anesthesia. 24 hours later (Day 1) animals received a single bilateral IT injection of the treatment regimens. Auditory function (ABR and ABR wave 1 amplitude) was monitored at day 1 and then every 7 days for 28 days. At termination (Day 28), cochleae were collected and assessed for evidence of cochlear synaptopathy (IHC synaptic puncta counts).
(§5) Intratympanic BDNF improves Auditory Brainstem Response (ABR) thresholds and wave I amplitudes in adult rats. The Auditory Brainstem Response (ABR) is an objective test that measures hearing sensitivity and can identify abnormalities in the peripheral auditory system and the auditory pathway up through the brainstem. […]

[2] = test system: adult male rats bilaterally exposed to noise; assay: Noise-induced cochlear synaptopathy, ABR and wave I amplitude at various BDNF concentrations (Example K); assay type: in vivo, rat; details: at all three BDNF concentrations (0.005%, 0.05%, 0.5% BDNF in P407), vs P407 vehicle alone
Protocol: as §1
(§6) Formulations: Human recombinant BDNF was suspended in the thermoreversible polymer Poloxamer 407 (16%) to reach a range of BDNF concentrations (0.005%, 0.05%, and 0.5% by weight).
as §3
as §4, with “Rats” for “Rats (n=44 per treatment group)”, “days, as illustrated in FIG. 16.” for “days.”
as §5

[3] = test system: adult male rats bilaterally exposed to noise; assay: Noise-induced cochlear synaptopathy, ABR and wave I amplitude after delayed intratympanic injection (Example L); assay type: in vivo, rat; details: for ABR threshold shift: ABR at day 28, FIG. 21; for wave I amplitudes: day 28, FIG. 22
Protocol: as §1
Formulations: Human recombinant BDNF was suspended in the thermoreversible polymer Poloxamer 407 (16%) to reach a BDNF concentration of 0.005%.
as §3
Noise-induced cochlear synaptopathy: Rats received a single acoustic trauma (105 dB SPL, 8-16 kHz, 1 h) under anesthesia. […] Auditory function (ABR and ABR wave 1 amplitude) was monitored at day 28. At termination (Day 28), cochleae were collected and assessed for evidence of cochlear synaptopathy (IHC synaptic puncta counts).
Intratympanic BDNF Injected 1, 3, or 7 Days After Acoustic Trauma improves Auditory Brainstem Response (ABR) thresholds and wave I amplitudes in adult rats. The Auditory Brainstem Response (ABR) is an objective test that measures hearing sensitivity and can identify abnormalities in the peripheral auditory system and the auditory pathway up through the brainstem. Adult male rats were bilaterally exposed to noise followed by an intratympanic injection of 0.005% BDNF in P407 1 day, 3 days, 7 days, or 14 days after noise exposure. ABR recordings were obtained at day 28.
The ABR Wave I amplitude is an indicator of the strength of the distal cochlear nerve signal, i.e., the response of the spiral ganglion neurons/synapses.

[4] = test system: rats after acoustic trauma; assay: Noise-induced cochlear synaptopathy, IHC synaptic puncta counts at various BDNF concentrations (Example K); assay type: in vivo, rat; details: at all three BDNF concentrations (0.005%, 0.05%, 0.5% BDNF in P407); Day 28; FIG. 19
Protocol: as §1, §6, §3
as §4, with “Rats” for “Rats (n=44 per treatment group)”, “days, as illustrated in FIG. 16.” for “days.”
(§7) Immunohistochemistry: Dissected cochleae were immunostained with antibodies against presynaptic (CtBP2) and postsynaptic (GluR2) proteins and MyosinVIIa to label hair cells. Cochleae were then frequency mapped and high-magnification images were obtained with a Zeiss LSM-880 confocal microscope and imaged at an interval of 0.35 μm.

[5] = test system: adult rats following noise damage; assay: Noise-induced cochlear synaptopathy, IHC synaptic puncta counts (Example G); assay type: in vivo, rat; details: each frequency region throughout the cochlea; BDNF in P407 after noise; Day 28; FIG. 13C
Protocol: as §1, §2, §3, §4, §7
Intratympanic BDNF repairs cochlear synaptopathy in adult rats. […]

SGNs = assay: SGN complexity, dissociated SGNs (Example D); assay type: cell-based, rat; details: differences upon treatment, FIG. 7D
Description: SGNs were immunostained, imaged, and batch analyzed with PerkinElmer Harmony 4.6 software. Changes in the complexities of SGNs upon treatment with various agents were examined. […] All of the images in a single well were stitched together and analyzed. SGN somas are shown in the upper right panel and SGN neurites are shown in the lower left panel. As shown in the lower right panel, each neurite tree is assigned to a single cell for analysis. Depending on the stitching, occasionally neurites will not meet the criteria due to gaps that exceed a user-defined threshold.

[6] = 0.005% BDNF in P407 injected 1, 3, or 7 days after noise exposure
[7] = 0.005% BDNF in P407 injected 14 days after noise exposure

B1: brain-derived neurotrophic factor (protein, UniProt P23560 129-247, looked up)
Neurotrophic factor BDNF: HSDPARRGELSVCDSISEWVTAADKKTAVDMSGGTVTVLEKVPVSKGQLKQYFYETKCNPMGYTKEGCRGIDKRHWNSQCRTTQSYVRALTMDSKKRIGWRFIRIDTSCVCTLTIKRGR
modifications: Neurotrophic factor BDNF in 16% poloxamer 407 gel
notes: Human recombinant BDNF
[1]; 0.05 mg/ml BDNF in P407, intratympanic injection 24 hours after noise exposure, ABR at days 1, 7, 14, and 28, vs P407 vehicle alone, FIG. 12A
  ABR threshold shift: more rapid recovery of initial threshold shifts and overall reduced levels of hearing loss
[1]; BDNF in P407 vs vehicle treatment following noise exposure, across many frequencies, FIG. 12C
  ABR wave I amplitudes: Significant improvements
[2]; intratympanic injection 24 hours after noise exposure, FIG. 17
  ABR threshold shift: more rapid recovery of initial threshold shifts and overall reduced levels of hearing loss
[2]; FIG. 18
  wave I amplitudes: significant improvements
[3]; [6]
  ABR threshold shift: more rapid recovery of initial threshold shifts and overall reduced levels of hearing loss
  wave I amplitudes: significant improvements
[3]; [7]
  ABR threshold shift: did not showed a more rapid recovery of initial threshold shifts and overall reduced levels of hearing loss
  wave I amplitudes: did not show significant improvements
[4]
  synaptic puncta (co-expression of CtBp2 and GluR2) per inner hair cell: increased
[5]
  synaptic puncta (co-expression of CtBp2 and GluR2) per inner hair cell: increased
SGNs
  total neurite length, total number of extremities, segments, and nodes per cell: not statistically significant
